According to article PMC4046507 (2014):

Biological target: T1, proteolipoprotein (PLP), substituted analog peptide on I-Ag7 (mouse, substituted analog of PLP 56-70 carrying lysine for tyrosine at positions 57 and 59 (residues worked out from the printed peptide and this description; the analog's own residues are not given))
T1 peptide: DKEKLINVIHAFQYV
Experiment: cytokine release

- binding result: recognises
B1: Th2-derived TCRαβ transgenic receptor (TRAV17 TRAJ50 / TRBV31 TRBJ2-3) (TCR)
alpha TRAV17 TRAJ50 CDR3: CALEGIASSSFSKLVF
beta TRBV31 TRBJ2-3 CDR3: CAWSLGGGAETLYF
